Measurements taken from the supplement of paper PMC9732359.
± gives the uncertainty stated by the source.

Assay: protein stability index of a GFP-peptide fusion (yeast GPS) (PSI 1-4); higher = more stable; sorted into four equal gates, so the index is relative within each strain
Conditions: ubr1∆
Summary of the method: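 Mid-log yeast cultures in leucine-free medium, carrying a pooled plasmid library, were sorted into four equal gates by their GFP/Cherry fluorescence ratio. Each plasmid expressed Cherry along with GFP fused upstream of a tiled 17-residue yeast protein peptide. Plasmids recovered from each gate were PCR-amplified and Illumina-sequenced, with reads assigned to strains by barcodes. The protein stability index was obtained by summing each gate's read frequency weighted by its gate number.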
In the case of VKKILPLYARYINVNPQ [ECM29], the protein stability index is reported as 2.72 ± 0.04. VKKPQKSKTSTGKERSK [SNM1] showed a protein stability index of 3.35 ± 0.062. Sequence VKKTGENEISSLLAMHK [CDC53] has a protein stability index of 2.87 ± 0.25. With VKKVQLGKKGVPYVVTH [RPS4A] the protein stability index was 2.04 ± 0.071. For VKKVVKEQTEAAKKSEK [RPL34A], the protein stability index was 3.31 ± 0.076. VKLIVMLCTLTGYQNND [YJL039C/NUP192] gave a protein stability index of 1.25 ± 0.098. Work on VKVARLAGKYIPNLTAK [FAS1] yielded a protein stability index of 3.03 ± 0.14. In the case of VKWYHFDHNDKKLSINS [PRE7], the protein stability index is reported as 2.48 ± 0.1. For VKYASPNLNMKYRKRQL [FAS2], the protein stability index was 2.88 ± 0.068. VKYMPEQKITEIEDGQD [RPO21] gave a protein stability index of 3.19 ± 0.069. With VLCTRLRLSNFFTIDHF [SIR2] the protein stability index was 1.28 ± 0.033. VLDSMTKEELESDGRMF [SRP54] gave a protein stability index of 2.27 ± 0.059. VLIDLLNWFRTTNMNVN [RGR1] showed a protein stability index of 1.92 ± 0.093. VLILLHAERDLALAETL [SRP68] showed a protein stability index of 3.11 ± 0.057. With VLKFAAHTGATPIAGRF [RPS0A] the protein stability index was 2.1 ± 0.12. For VLKFTFTGEKPIITGST [MED8], the protein stability index was 2.07 ± 0.062. With VLKSSVYEYVIASTLGP [RPC82] the protein stability index was 1.43 ± 0.055. VLKTLIEKFEQVPDSLD [RPN6] showed a protein stability index of 3.21 ± 0.086. For VLMERKDERGEGEAKQK [ITC1], the protein stability index was 3.07 ± 0.22. VLNGQKIVVVRAEALNI [RPL16B] gave a protein stability index of 3.11 ± 0.11. With VLPAATKKKSKFMTNST [ARP9] the protein stability index was 2.96 ± 0.039. Work on VLRTALVHDGLARGLRE [RPS12] yielded a protein stability index of 3.25 ± 0.1. In the case of VLSDDAKKLSSFDFGNE [ARP9], the protein stability index is reported as 3.06 ± 0.056. Work on VLTHESLHRQQQQQQQQ [DLS1] yielded a protein stability index of 2.85 ± 0.079. For VLVASAKGLQTVVVEED [RPL31A], the protein stability index was 2.25 ± 0.094. For VMDTIQEQITLYDHWDK [SSN8], the protein stability index was 2.82 ± 0.068. With VMLKGIVTALLESDVNI [SRP54] the protein stability index was 1.16 ± 0.066. In the case of VMTVPGIDPTRIYTNSF [RPO21], the protein stability index is reported as 2.1 ± 0.056. With VMTYKGEVLGITRFGLS [RPO31] the protein stability index was 3.46 ± 0.29. With VMYGTAYKFEEVSKDLI [RPB8] the protein stability index was 3.09 ± 0.051. VMYNGHTGKKLMAQIFF [RPB2] showed a protein stability index of 1.27 ± 0.045. For VNDEEEHKQLVAEIVQN [RPC82], the protein stability index was 1.66 ± 0.098. For VNDNPDIEAGDDDDNNE [DIS3], the protein stability index was 3.33 ± 0.089. Sequence VNIEPFNIDDEIKHGVF [LIN1] has a protein stability index of 3.48 ± 0.077. Work on VNNGNIPSQRGTSTTHG [SIR3] yielded a protein stability index of 2.73 ± 0.072. Work on VNNTRRRVYNRVLETTL [BRN1] yielded a protein stability index of 2.65 ± 0.11. With VNRLLSVIPLKGRYAPE [RRP4] the protein stability index was 1.86 ± 0.055. For VNRSVVVSAVGEARNDI [YAR002W/NUP60], the protein stability index was 2.2 ± 0.037. With VPCDRIEKSRLFSEKTI [SNF6] the protein stability index was 2.2 ± 0.044. Sequence VPLIKVADAKQLGEWAG [RPS12] has a protein stability index of 3.17 ± 0.12. In the case of VPPIASPQQFLRAHTDD [PRE2], the protein stability index is reported as 2.6 ± 0.087. Sequence VPPTIAQFQYTLDRNTA [RPL8A] has a protein stability index of 1.68 ± 0.044. VPPVENFPVRQWSIEIV [TAF14] showed a protein stability index of 2.82 ± 0.051. VPRKFKHFIQGGSFGNR [RPL7A] gave a protein stability index of 2.17 ± 0.055. For VPRTADRSASRAVFLFR [RPC82], the protein stability index was 3.04 ± 0.17. In the case of VPYVVTHDGRTIRYPDP [RPS4A], the protein stability index is reported as 3.38 ± 0.19. Sequence VQCPTVIKLAKYPDYFP [ARP9] has a protein stability index of 1.82 ± 0.047. Work on VQEQLSKNRIIVEADEK [RET1] yielded a protein stability index of 1.4 ± 0.062. With VQGGNAAPSAADIKAVV [RPP2B] the protein stability index was 3.23 ± 0.075. For VQHDQILVMETSEEQTK [SWP82], the protein stability index was 2.85 ± 0.076. Sequence VQLKDANSQIQAYEEII [YIL149C/MLP2] has a protein stability index of 3.45 ± 0.12. VQVKVLGKYEFSKILPA [ESC2] showed a protein stability index of 1.83 ± 0.19. With VRKAITVLFFIGVRCYE [FAS1] the protein stability index was 1.45 ± 0.064. With VRKELRGRAVVLMGKNT [RPP0] the protein stability index was 2.08 ± 0.057. VRLLCRSDGMGNVLLNA [YLR335W/NUP2] showed a protein stability index of 2.53 ± 0.12. VRSEMGEPIHKIATRGV [FAS1] gave a protein stability index of 2.95 ± 0.089. VRVQRQKKILSIRLKVP [RPL8A] showed a protein stability index of 1.25 ± 0.025. Sequence VSADDFVEEQNVYVLPK [PRP8] has a protein stability index of 3.32 ± 0.083. Work on VSALDKCIKYSEKLITK [ECM29] yielded a protein stability index of 1.92 ± 0.093. With VSDSEIIDLNLHSFTKQ [POP6] the protein stability index was 2.73 ± 0.044. Sequence VSEVAKIMQEATQSGGV [PRE8] has a protein stability index of 3.05 ± 0.097. VSGDLNPIHVSRHFASY [FAS1] gave a protein stability index of 2.81 ± 0.062. VSISTSVKPHVVEPEHM [SIR4] showed a protein stability index of 2.65 ± 0.052. VSITDAPKIHILDPSTE [YMR129W/POM152] gave a protein stability index of 1.54 ± 0.061. For VSITPGKIEKIAQSKKK [SRP21], the protein stability index was 1.49 ± 0.06. VSKKVDVRRLKKNVWRS [BRN1] gave a protein stability index of 3.13 ± 0.13. Sequence VSLTKRKQEREITSLRQ [YIL149C/MLP2] has a protein stability index of 2.35 ± 0.071. VSNRVAAPARAGAVAPE [RPP0] gave a protein stability index of 2.56 ± 0.17. In the case of VSNSISRLGEENLPGLS [SNU114], the protein stability index is reported as 1.07 ± 0.12. Work on VSPNDNNSANNNAHSSD [YMR153W/NUP53] yielded a protein stability index of 2.56 ± 0.037. For VSPNISSASPSALTSPT [SIR3], the protein stability index was 2.53 ± 0.04. VSQVRVVPNEKADDDSV [ASC1] gave a protein stability index of 2.6 ± 0.08. In the case of VSSKPSKPESSVLQLIV [MED1], the protein stability index is reported as 3.27 ± 0.098. For VTAKLLGFTPGELRSYL [FAS1], the protein stability index was 3.1 ± 0.093. Work on VTDDPIWMRGHGTYFLD [RRP4] yielded a protein stability index of 3.07 ± 0.065. VTDLSGKETIARVTGGM [RPS14B] showed a protein stability index of 2.9 ± 0.061. For VTGASQFQRLAPSLTVP [PRE2], the protein stability index was 1.67 ± 0.089. For VTIIPLDKIYTRPISSQ [SMC2], the protein stability index was 1.25 ± 0.045. For VTKDTKKYSSKNKYGEI [SRP68], the protein stability index was 2.77 ± 0.068. For VTLKGAKALESLASCLR [POP1], the protein stability index was 2.74 ± 0.07. Work on VTPEDVMTISSLEQRTL [RPC82] yielded a protein stability index of 3.25 ± 0.073. With VTQKDICILGILDLCQL [CSI1] the protein stability index was 1.29 ± 0.15. VTVVDTPPVVVVGVVGY [RPL3] gave a protein stability index of 1.39 ± 0.048. VVEPEHMADAKIMPKDI [SIR4] gave a protein stability index of 3.12 ± 0.081. Sequence VVFRDPYKYRLREEIFI [RPL2A] has a protein stability index of 2.81 ± 0.087. Sequence VVGVVGYVETPRGLRSL [RPL3] has a protein stability index of 2.98 ± 0.095. With VVIDAFRLIDTGALINN [RPN11] the protein stability index was 1.11 ± 0.098. In the case of VVLGVEKRATSPLLESD [PUP2], the protein stability index is reported as 2.84 ± 0.11. VVTSSVAESFTDEADSS [SNF2] gave a protein stability index of 3.01 ± 0.084. With VVVAETSPEKKDGGDKP [YAR002W/NUP60] the protein stability index was 3.44 ± 0.2. For VWGSETVASSKVGYTLP [RPL4A], the protein stability index was 3.156 ± 0.031. Sequence VYDFYGRHVATCSSDQH [YGL100W/SEH1] has a protein stability index of 2.2 ± 0.049. VYEYVIASTLGPSAMRL [RPC82] gave a protein stability index of 1.23 ± 0.097. VYFGDENKVMLPRCSKE [RRI2] showed a protein stability index of 3.13 ± 0.063. Work on VYKFMSLAKSSALWSSR [ECM29] yielded a protein stability index of 1.74 ± 0.29. For VYNLALKCAERQLTSME [NUT1], the protein stability index was 2.31 ± 0.029. Sequence VYPITLSTDATSADLKS [UBP6] has a protein stability index of 2.4 ± 0.059. For VYREVCAACHSLDRVAW [CYT1], the protein stability index was 2.86 ± 0.13. Work on VYSKQATFLLTDIKDTL [MCD1] yielded a protein stability index of 2.3 ± 0.057.
